Source: US20230293647A1 (AUTOLUS, published 2023)

Tests used:
Test in all cases: cell microarray
[1] = target: EGFR (human, UniProt P00533)
[2] = target: T1, TTYH3 V1 (human, UniProt Q9C0H2)
T1 sequence (looked up): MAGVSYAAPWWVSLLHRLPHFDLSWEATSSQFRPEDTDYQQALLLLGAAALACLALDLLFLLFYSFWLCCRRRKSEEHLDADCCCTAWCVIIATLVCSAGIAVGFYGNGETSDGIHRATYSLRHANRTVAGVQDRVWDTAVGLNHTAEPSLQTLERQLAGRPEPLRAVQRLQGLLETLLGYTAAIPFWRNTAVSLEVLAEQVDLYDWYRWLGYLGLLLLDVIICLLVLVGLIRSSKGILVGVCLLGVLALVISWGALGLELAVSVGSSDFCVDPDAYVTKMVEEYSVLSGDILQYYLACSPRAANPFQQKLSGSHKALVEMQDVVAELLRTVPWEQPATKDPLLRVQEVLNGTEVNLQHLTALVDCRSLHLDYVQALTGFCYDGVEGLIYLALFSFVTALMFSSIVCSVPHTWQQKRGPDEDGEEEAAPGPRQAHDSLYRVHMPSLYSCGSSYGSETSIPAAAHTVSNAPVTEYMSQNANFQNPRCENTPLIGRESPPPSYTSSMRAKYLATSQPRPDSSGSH

[3] = target: T2, SLC26A4 (human, UniProt O43511)
T2 sequence (looked up): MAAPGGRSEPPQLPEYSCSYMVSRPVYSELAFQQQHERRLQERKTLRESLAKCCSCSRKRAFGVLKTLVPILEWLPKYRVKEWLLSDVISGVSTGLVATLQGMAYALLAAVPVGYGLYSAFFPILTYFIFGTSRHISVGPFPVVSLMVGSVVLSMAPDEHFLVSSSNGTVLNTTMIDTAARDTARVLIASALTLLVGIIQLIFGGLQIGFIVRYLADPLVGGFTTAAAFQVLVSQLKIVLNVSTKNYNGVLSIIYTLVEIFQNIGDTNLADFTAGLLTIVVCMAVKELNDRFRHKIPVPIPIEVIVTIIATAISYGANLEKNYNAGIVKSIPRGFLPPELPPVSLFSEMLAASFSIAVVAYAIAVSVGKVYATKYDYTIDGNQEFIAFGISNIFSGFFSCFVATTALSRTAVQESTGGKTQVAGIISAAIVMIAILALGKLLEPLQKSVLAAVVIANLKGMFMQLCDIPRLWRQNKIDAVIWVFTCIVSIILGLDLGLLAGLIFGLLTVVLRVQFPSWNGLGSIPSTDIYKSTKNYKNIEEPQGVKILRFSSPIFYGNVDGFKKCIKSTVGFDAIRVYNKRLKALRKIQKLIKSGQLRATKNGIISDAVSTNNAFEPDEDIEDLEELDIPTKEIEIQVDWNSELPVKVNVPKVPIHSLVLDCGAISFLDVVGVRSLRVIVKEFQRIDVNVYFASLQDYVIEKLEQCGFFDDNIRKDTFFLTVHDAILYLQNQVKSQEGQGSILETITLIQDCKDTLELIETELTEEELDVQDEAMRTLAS

[4] = target: T3, CD86 (cell microarray) (human, UniProt P42081 24-329)
T3 sequence (looked up): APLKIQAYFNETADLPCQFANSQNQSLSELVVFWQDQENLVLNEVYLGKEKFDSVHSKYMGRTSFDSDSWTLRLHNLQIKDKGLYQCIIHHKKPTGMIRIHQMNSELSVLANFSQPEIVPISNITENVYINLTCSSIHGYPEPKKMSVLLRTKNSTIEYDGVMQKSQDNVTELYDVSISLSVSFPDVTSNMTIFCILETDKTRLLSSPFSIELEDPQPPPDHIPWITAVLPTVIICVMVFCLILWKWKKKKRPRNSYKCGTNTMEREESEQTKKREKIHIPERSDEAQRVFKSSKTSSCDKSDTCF

Measured: binding result

B1: Fc LALA-PG only construct with the ACE2 domain omitted (other)
chain: EPKSCDKTHTCPPCPAPEAAGGPSVFLFPPKPKDTLMISRTPEVTCVVVDVSHEDPEVKFNWYVDGVEVHNAKTKPREEQYNSTYRVVSVLTVLHQDWLNGKEYKCKVSNKALGAPIEKTISKAKGQPREPQVYTLPPSREEMTKNQVSLTCLVKGFYPSDIAVEWESNGQPENNYKTTPPVLDSDGSFFLYSKLTVDKSRWQQGNVFSCSVMHEALHNHYTQKSLSLSPGK
notes: also called control Fc (LALA-PG)
no binding: all assays above
